The values below come from patent publication WO2001096599A2.

The target in this assay is recombinant ED-B protein (UniProt P02751). Kind of assay: I-125 labelled antibody on a small column of ED-B sepharose, elution with TEA pH 11.
Sequence of UniProt P02751 (P02751 1266-1356 limits assumed): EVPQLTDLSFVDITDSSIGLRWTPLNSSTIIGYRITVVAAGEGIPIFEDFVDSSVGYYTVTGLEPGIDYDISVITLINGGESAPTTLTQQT

In the case of “L19, human recombinant antibody directed against the Extra Domain B”, the immuno-reactivity (% of labeled material that bound to the ED-B sepharose column and was eluted) lay within 85 to 95%.
